Source: US20180215833A1 (published 2018)

Assays:
[1] = target: human c-Met on cells (MKN-45, A549, HPAF, BxPC3, NCI-H441) (human, UniProt P08581 25-1390); assay: cell-based or functional assay
[2] = target: Ll10 (aa608-909) (human; Llama glama); assay: ELISA, mAb immobilised, c-Met chimera titrated (EC50 of the chimera)
[3] = target: LS4 (aa1-348) (Llama glama; human) (UniProt P08581); assay: as above
[4] = target: Ll8 (aa540-909) (human; Llama glama); assay: as above
[5] = target: LS3 (aa1-287) (Llama glama; human) (UniProt P08581); assay: as above
[6] = target: Ll11 (aa634-909) (human; Llama glama); assay: as above
[7] = target: Ll9 (aa572-909) (human; Llama glama); assay: as above
[8] = target: LS2 (aa1-199) (Llama glama; human) (UniProt P08581); assay: as above
[9] = target: LS5 (aa1-448) (Llama glama; human) (UniProt P08581); assay: as above
[10] = target: T1, llama c-Met ECD (aa 25-932), His tag (Llama glama); assay: ELISA, 200 ng immobilised c-Met protein
T1 construct: also called Llama glama c-Met
T1 chain: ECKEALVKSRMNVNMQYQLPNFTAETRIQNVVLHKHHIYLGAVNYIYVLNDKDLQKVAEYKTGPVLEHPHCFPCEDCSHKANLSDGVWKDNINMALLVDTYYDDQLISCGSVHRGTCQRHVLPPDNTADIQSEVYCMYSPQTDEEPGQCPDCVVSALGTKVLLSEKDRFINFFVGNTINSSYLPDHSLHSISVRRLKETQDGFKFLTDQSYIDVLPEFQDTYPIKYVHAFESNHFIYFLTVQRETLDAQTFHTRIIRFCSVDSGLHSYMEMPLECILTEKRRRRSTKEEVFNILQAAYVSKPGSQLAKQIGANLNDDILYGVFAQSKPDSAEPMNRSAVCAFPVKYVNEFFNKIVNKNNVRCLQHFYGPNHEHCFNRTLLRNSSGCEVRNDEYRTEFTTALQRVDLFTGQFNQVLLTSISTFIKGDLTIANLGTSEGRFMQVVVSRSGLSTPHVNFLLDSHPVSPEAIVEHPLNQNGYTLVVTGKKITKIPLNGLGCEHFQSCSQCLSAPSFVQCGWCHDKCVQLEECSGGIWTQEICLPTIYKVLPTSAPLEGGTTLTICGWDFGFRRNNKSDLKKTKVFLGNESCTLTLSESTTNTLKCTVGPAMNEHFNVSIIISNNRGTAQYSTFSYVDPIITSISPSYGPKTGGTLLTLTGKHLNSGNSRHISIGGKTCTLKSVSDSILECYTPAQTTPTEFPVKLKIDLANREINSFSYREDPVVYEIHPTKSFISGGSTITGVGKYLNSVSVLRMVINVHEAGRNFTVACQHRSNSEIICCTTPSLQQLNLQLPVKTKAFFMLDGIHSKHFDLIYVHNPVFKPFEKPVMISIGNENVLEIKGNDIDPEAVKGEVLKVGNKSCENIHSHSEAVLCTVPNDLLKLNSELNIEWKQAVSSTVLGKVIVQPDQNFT

LS1 (aa1-98) = target: T2, LS1 (aa1-98) (Llama glama; human, UniProt P08581 25-932); assay: ELISA, mAb immobilised, c-Met chimera titrated (EC50 of the chimera)
T2 construct: Ranges count on mature human c-Met
T2 chain: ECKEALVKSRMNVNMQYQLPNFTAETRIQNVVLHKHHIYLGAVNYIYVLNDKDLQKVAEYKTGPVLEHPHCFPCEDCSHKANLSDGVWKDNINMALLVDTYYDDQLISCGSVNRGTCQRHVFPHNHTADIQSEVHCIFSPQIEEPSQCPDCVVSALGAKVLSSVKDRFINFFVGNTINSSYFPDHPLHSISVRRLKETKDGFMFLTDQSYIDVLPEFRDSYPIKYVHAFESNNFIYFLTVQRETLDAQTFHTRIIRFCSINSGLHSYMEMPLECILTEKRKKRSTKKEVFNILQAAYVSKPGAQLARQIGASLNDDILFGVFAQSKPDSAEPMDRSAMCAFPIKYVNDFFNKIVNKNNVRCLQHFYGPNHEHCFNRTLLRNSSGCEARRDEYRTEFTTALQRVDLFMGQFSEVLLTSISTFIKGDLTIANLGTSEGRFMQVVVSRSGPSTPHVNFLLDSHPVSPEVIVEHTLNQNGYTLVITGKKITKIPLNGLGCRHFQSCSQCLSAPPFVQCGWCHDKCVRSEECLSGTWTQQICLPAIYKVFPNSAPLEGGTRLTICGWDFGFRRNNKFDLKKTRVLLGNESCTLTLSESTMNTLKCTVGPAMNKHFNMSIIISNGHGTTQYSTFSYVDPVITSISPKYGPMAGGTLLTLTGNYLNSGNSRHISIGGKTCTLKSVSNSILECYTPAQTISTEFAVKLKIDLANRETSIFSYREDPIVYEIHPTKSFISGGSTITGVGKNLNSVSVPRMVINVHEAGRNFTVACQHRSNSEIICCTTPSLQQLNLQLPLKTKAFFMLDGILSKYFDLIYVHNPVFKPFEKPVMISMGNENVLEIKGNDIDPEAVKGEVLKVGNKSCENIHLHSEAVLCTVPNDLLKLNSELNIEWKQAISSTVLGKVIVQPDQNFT
Description: An ELISA was run to investigate the binding of the mAbs to the different chimeras.

[11] = target: LP7* (aa523-909) (human; Llama glama); assay: as above
[12] = target: LP6 (aa497-909) (human; Llama glama); assay: as above
[13] = target: T3, human/llama-IPT chimeric c-Met ECD (human; Llama glama, UniProt P08581 25-932); assay: ELISA, 200 ng immobilised c-Met protein, mAb titrated
T3 construct: ranges stand under form; also called human/llama IPT1-4; construct with the human SEMA-PSI
T3 chain: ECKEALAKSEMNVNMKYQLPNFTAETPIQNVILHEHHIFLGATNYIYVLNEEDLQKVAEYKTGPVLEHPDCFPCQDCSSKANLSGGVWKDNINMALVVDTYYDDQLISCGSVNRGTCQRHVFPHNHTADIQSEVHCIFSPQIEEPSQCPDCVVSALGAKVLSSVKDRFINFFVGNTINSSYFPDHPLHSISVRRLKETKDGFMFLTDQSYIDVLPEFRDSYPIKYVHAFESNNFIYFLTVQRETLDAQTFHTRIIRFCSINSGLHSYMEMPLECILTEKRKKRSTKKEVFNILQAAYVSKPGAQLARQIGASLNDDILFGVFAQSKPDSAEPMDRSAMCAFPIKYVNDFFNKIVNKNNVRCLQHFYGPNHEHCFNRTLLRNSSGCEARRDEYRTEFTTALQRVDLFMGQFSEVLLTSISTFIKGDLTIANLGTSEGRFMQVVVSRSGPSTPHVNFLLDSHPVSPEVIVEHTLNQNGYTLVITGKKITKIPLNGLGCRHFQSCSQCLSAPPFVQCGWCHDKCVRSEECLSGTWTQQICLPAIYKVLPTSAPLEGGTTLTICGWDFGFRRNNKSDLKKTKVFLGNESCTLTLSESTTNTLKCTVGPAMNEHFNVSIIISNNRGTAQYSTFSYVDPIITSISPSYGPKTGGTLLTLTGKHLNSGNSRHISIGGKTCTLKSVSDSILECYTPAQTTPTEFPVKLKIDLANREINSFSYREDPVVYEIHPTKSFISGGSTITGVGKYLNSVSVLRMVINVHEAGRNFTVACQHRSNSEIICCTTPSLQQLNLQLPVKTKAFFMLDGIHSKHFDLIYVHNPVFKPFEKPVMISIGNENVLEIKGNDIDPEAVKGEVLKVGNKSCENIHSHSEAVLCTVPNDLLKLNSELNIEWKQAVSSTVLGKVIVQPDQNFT

B1: 40B8 (antibody, V domains shown)
VH: EVQLVQPGAELRNPGASVKVSCKASGYTFTNYVIDWVRQAPGQGLEWMGRIDPENGGTRYAQKFQGRVTFTADTSTSTAYVELSNLRSEDTAVYYCARLEDYELAYDYWGQGTQVTVSS
VL: DIVMTQTPSSVTASAGEKVTINCKSSQSVLLSSNQKNYLAWYQQRLGQSPRLLIYWASTRESGVPDRFSGSGSTTDFTLTISSFQPEDAAVYYCQQGVSFPLTFGQGTKVELK
B1 was tested, and the “ADCC, specific lysis of MKN-45 cells, EC50” value (“ADCC, specific lysis” for short) [1] was 0.0046 µg/mL and the “antibody-induced proliferation of BxPC3 cells, percentage of the proliferation obtained with 75 ng/ml HGF” value [1] was < 20%.

B2: 38H10 (antibody, V domains shown)
VH: EVQLVQPGVELRNPGASVKVSCKASGYIFTMNSIDWVRQAPGQGLEWMGRIDPEDGGTKYAQKFQGRVTFTADTSTSTAYVELNSLRSEDTAVYYCARVDDYYLGYDYWGQGTQVTVSS
VL: EIVMTQSPSSVTASAGEKVTINCKSSQSVLWRSNQKNYLAWYQQRLGQSPRLLISWASIRESGVPDRFSGSGSTTDFTLTISSFQPEDAAVYYCQQGYSFPYTFGSGTRLEIK
With B2 the “antibody-induced proliferation of BxPC3 cells, percentage of the proliferation obtained with 75 ng/ml HGF” value [1] was < 20%.

B3: 48A2 (antibody, V domains shown)
VH: B2 VH
VL: DIVMTQTPTSVTASAGDKVTINCKSSQSVLFSSNQKNYLAWYQQRLGQSPRLLIYWASIRESGVPDRFSGSGSATDFTLTISNFQPEDAAVYYCQQGYSFPYSFGSGTRLEIR
In the case of B3, the “ADCC, specific lysis” value [1] is reported as 0.0043 µg/mL, the EC50 [2] is reported as > 0.04 µg/mL and the EC50 [3] is reported as 0.07 µg/mL. For the same binder, the EC50 [4] was > 0.04 µg/mL, the EC50 [5] was 0.05 µg/mL and the EC50 [6] was 0.042 µg/mL. For the same binder, the EC50 [7] was > 0.04 µg/mL, the EC50 [8] was 0.034 µg/mL and the EC50 [9] was 0.05 µg/mL.

B4: 13E6 (antibody, V domains shown)
VH: QVQLQESGGDLVQPGGSLRLSCAASGFTFDDYVMNWVRQAPGKGLEWISAINWNGGSTYYAESMKGRFTISRDNAKNTLYLQMYSLQSDDTAVYYCVKDTVVSGNGYWGQGTQVTVSS
VL: QSVLTQPPSVSGTLGKTVTISCAGTSSDIGDYNYVSWYQQLPGTAPKLLIYDVNKRASGIPDRFSGSKSGNTASLSISGLQSEDEADYYCASYRSRNDYAFGGGTKLTVL
notes: also called mAb 13E6
B4: no binding [10].

B5: 36C4 (antibody, V domains shown)
VH: QVQLVESGPGLVKPSQTLSLTCAVSGGSITTNYYYWSWIRQSPGKGLEWMGVIAYDGSTDYSPSLKSRTSISRDTSKNQFSLQLSSVTPEDTAVYYCARDVRVIATGWATANALDAWGQGTLVTVSS
VL: QSVLTQPPSVSGSPGKTVTISCAGTSSDVGYGNYVSWYQQLPGTAPKLLIFAVSYRASGIPDRFSGSKSGNTAFLTISGLQSEDEADYYCASYRSSNNAAVFGGGTHLTVL
notes: also called mAb 36C4; SIMPLE antibody 36C4
In the case of B5, the EC50 (LS1 (aa1-98)) is reported as 0.068 µg/mL, the binding result [10] is reported as “no binding” and the “ADCC, specific lysis” value [1] is reported as 0.005 µg/mL. For the same binder, the “antibody-induced proliferation of BxPC3 cells, percentage of the proliferation obtained with 75 ng/ml HGF” value [1] was < 20%, the EC50 [2] was 0.047 µg/mL and the EC50 [4] was 0.047 µg/mL. It also gave an EC50 [11] of 0.055 µg/mL, an EC50 [6] of 0.045 µg/mL and an EC50 [7] of 0.047 µg/mL. For the same binder, the EC50 [12] was 0.05 µg/mL and the binding result [13] was “binds”.

B6: Potelligent 36C4 (antibody, V domains shown)
VH: B5 VH
VL: B5 VL
modifications: defucosylated (produced in Potelligent CHO cells)
B6 was tested, and the “ADCC, 51Cr release assay on NCI-H441 cells, EC50” value [1] was 0.04 µg/mL and the “ADCC, 51Cr release, lysis of NCI-H441 cells, IC50” value [1] was 0.00013 µg/mL.

B7: 36C4E (antibody, V domains shown)
VH: B5 VH
VL: B5 VL
With B7 the “ADCC, 51Cr release assay on NCI-H441 cells, EC50” value [1] was 0.26 µg/mL.

B8: chimeric 224G11 (antibody, human IgG1, V domains shown)
VH: EVQLQQSGPELVKPGASVKISCKTSGYIFTAYTMHWVRQSLGESLDWIGGIKPNNGLANYNQKFKGKATLTVDKSSSTAYMDLRSLTSEDSAVYYCARSEITTEFDYWGQGTALTVSS
VL: DIVLTQSPASLAVSLGQRATISCRASESVDSYANSFMHWYQQKPGQPPKLLIYRASNLESGIPARFSGSGSRTDFTLTINPVEADDVATYYCQQSKEDPLTFGSGTKLEMK
For B8, the “ADCC, specific lysis” value [1] was 0.0028 µg/mL.
